The labels stand for the following.
B1: un-labeled PACAP (15–31) [not stated] / MBP-PAC1R (25–140)-His6 [human] (parent complex)
chain 1: KQMAVKKYLAAVLGKRY
chain 2: CIFKKEQAMCLEKIQRANELMGFNDSSPGCPGMWDNITCWKPAHVGEMVLVSCPELFRIFNPDQDMGVVSRNCTEDGWSEPFPHYFDACGFDEYESETGDQDYYYLSVKALYTVGY

The variants in this experiment derive from B1. In words: competitive AlphaScreen; Competing peptide 150uM; residual signal after competition, higher counts = weaker competition by the mutant peptide; read off a plot. A general note: Alpha assays give light when donor and acceptor beads are brought close together.
For the variant chain 1 K6A, the response was ~34000 Photon Counts. For chain 1 K1A the value was ~1800 Photon Counts; for chain 1 L9A, ~1100 Photon Counts; for chain 1 M3A, ~5100 Photon Counts. For chain 1 V5A the value was ~17000 Photon Counts; for chain 1 L13A, ~26000 Photon Counts; for chain 1 V12A, ~6300 Photon Counts.

In the case of chain 1 R16A, the response is ~2700 Photon Counts. chain 1 K15A: the response was ~3800 Photon Counts. With chain 1 Y17A the figure was ~2700 Photon Counts.

Turning to chain 1 K7A, the response is ~2900 Photon Counts.

As for chain 1 Q2A, the response is ~1900 Photon Counts. For chain 1 Y8A the value was ~1500 Photon Counts.

The values above are taken from article PMC3098264, “Crystal Structure of the PAC1R Extracellular Domain Unifies a Consensus Fold for Hormone Recognition by Class B G-Protein Coupled Receptors” (PLoS ONE, 2011).
